Measured values as given in US10603364B2, “Lysosomal targeting and uses thereof” (Shire Human Genetic Therapies, Inc., priority 2014, dated 2020).

How the values were obtained:
Naglu KO mice [1] = assay: Naglu enzyme activity in tissues of Naglu KO mice after intrathecal administration; format: in vivo; conditions: 520 mg/kg brain, 24 hrs post final dose
Experimental: (§1) To evaluate the in vivo activity of Naglu-SPP and its efficacy as a therapeutic for the treatment of lysosomal storage diseases, particularly San B, Naglu-SPP was administered to Naglu KO mice via intrathecal injection. Intrathecal administration of Naglu-IGFII served as a positive control. The experimental conditions used for this assay are described in Tables 10 and 11 below.
24 hours after intrathecal administration of each respective fusion protein, Naglu KO mice were sacrificed and Naglu enzyme activity in various tissues was assayed. Total Naglu activity was evaluated using a well-established enzyme activity assay. Briefly, tissue homogenate was incubated in the presence of the Naglu specific substrate methylumbelliferyl-N-acetyl-α-D-glucosainide, and accumulation of cleavage product was measured by examining fluorescence intensity at 360/460 nm (excitation/emission) using a fluorescent plate reader. […] This increase in enzyme activity was observed over the duration of the 3 week treatment period.

Naglu KO mice [2] = assay: Immunohistochemical staining of Lamp-1, GFAP and Iba-1 in brain and liver; format: in vivo; conditions: intrathecal
Experimental: as §1
The lysosomal targeting of Naglu-SPP and Naglu-IGFII was further examined by immunohistochemical analysis. Tissue samples were collected, fixed in 10% NBF and processed for paraffin embedding. For each tissue assayed, 5 μm paraffin sections was subjected to immunostaining using antibodies against lamp lysosomal associated membrane protein 1 (Lamp-1), glial fibrillary acidic protein (GFAP) and the ionized calcium-binding adapter molecule 1 (Iba-1).

Naglu KO mice [3] = assay: Total glycosaminoglycan (GAG) in liver and brain, dimethylmethylene blue; format: in vivo; conditions: intrathecal, 520 mg/kg brain; brain significant in 2× and 3× weekly groups
Experimental: as §1
The activity of Naglu-SPP and Naglu-IGFII in vivo was also evaluated by examining the intracellular accumulation of natural substrates of Naglu in treated mice. One such assay was designed to evaluate the total concentration of glycosaminoglycan (GAG) in liver (FIG. 11A) and brain (FIG. 11B) tissue of treated mice in accordance with de Jong et al. (Clin Chem 38(6):803-807, 1992). Briefly, liver tissue was homogenized and total GAG quantified using dimethylmethylene blue. Brain tissue was homogenized and then incubated with pronase and benzonase to break down protein and nucleic acid. Total GAG was then extracted by passing the brain homogenate through a DEAE column. The eluate was further buffer exchanged through a desalting column, and the total GAG content was quantified using dimethylmethylene blue. […] The reduction of total GAG amount in brain tissue was significant in the 2× weekly as well as the 3× weekly treatment groups.

wild-type rats [4] = assay: Immunohistochemistry of Naglu protein in brain tissue after intrathecal administration; format: in vivo; conditions: for Naglu immunostaining in cerebral cortex / brain parenchyma: 4 and 24 hours post treatment
Experimental: (§2) To evaluate biodistribution of the SORT1-binding Naglu fusion proteins, an in vivo study was conducted using wild-type rats subjected to intrathecal administration of vehicle control (PBS), rhNaglu, Naglu-IGFII, Naglu-SPP, Naglu-SapDC or Naglu-tPRGN. Details of the experimental design are provide in Table 9 below. Previous experiments had shown that Naglu-IGFII but not rhNaglu penetrates into brain tissue and is targeted to lysosomes after intrathecal injection. Accordingly, rhNaglu and Naglu-IGFII were utilized in this study as negative and positive controls, respectively.
Rats were sacrificed either 4 or 24 hours post intrathecal administration of the respective fusion protein. Brain tissue samples were collected, fixed in 10% NBF and processed for paraffin embedding. 5 μm paraffin sections from each tissue assayed were subjected to immunostaining using an anti-human Naglu antibody.

Naglu KO mice [5] = assay: Sanfillipo B specific biomarkers in brain by LC/MS; format: in vivo; conditions: intrathecal, 520 mg/kg brain, especially 2× weekly and 3× weekly
Experimental: as §1
Using the same LC/MS technology as used for the quantification of heparin sulfate (see above), the presence of Sanfillipo B specific biomarkers in brains of treated KO mice were evaluated. Naglu deficiency causes the accumulation of certain heparin sulfate degradation products (presented in FIGS. 13A-C) which are natural substrates of Naglu. These biomarkers are the most relevant indications for Naglu deficiency.

wild-type rats [6] = assay: Naglu enzyme activity in liver and brain after intrathecal administration (biodistribution); format: in vivo; conditions: 385 ug/animal; for Naglu enzyme activity in brain: 4 or 24 hours post dose
Experimental: as §2
Rats were sacrificed either 4 or 24 hours post intrathecal administration of the respective fusion protein and total Naglu enzyme activity in the animals' liver and brain tissue was determined using a well-established enzyme activity assay (FIGS. 7A and B). Briefly, brain and liver tissue homogenates were prepared and incubated in the presence of a Naglu specific substrate, i.e., methylumbelliferyl-N-acetyl-α-D-glucosainide; accumulation of cleavage product was then measured by examining fluorescence intensity at 360/460 nm (excitation/emission) using a fluorescent plate reader.

Naglu KO mice [7] = assay: Heparan sulfate in brain by LC/MS; format: in vivo; conditions: intrathecal, 520 mg/kg brain, 2× weekly and 3× weekly
Experimental: as §1
In a second assay, we evaluation the total amount of heparan sulfate in the brain of treated KO mice. […] To measure heparan sulfate in mouse brain tissue, a highly sensitive LC/MS method was applied (Lawrence et al, 2012, Nat Chem Biol. 2012 Jan. 8; 8(2):197-204). Briefly, total GAG from brain tissue was extracted by a DEAE column and a desalting column, and then dried and weighted. The extracted GAG was treated with heparin lyases that specifically release unique mono, di and tri saccharides of heparan sulfate, and the sample was then analyzed by LC/MS. The released saccharides were identified and quantified using commercially available saccharide standards of heparan sulfate degradation.

[8] = tested on: SORT1 overexpressing cells; assay: Cellular uptake in Sortilin overexpressing cells (intracellular Naglu enzyme activity); format: cell-based; conditions: absence of Neurotensin
Experimental: A cell line was established overexpressing SORT1, using standard technologies known in the art. […] After a specified period of time, the supernatant was removed and the cells were washed repeatedly. Then, cells were lysed and each sample was assayed for Naglu enzyme activity.

B1: Naglu-IGFII: Fusion protein of human Naglu and IGF-II residues 8-67 via GAG3 linker; SEQ ID NO:20, SEQ ID NO:25; positive control (protein)
chain: MEAVAVAAAVGVLLLAGAGGAAGDEAREAAAVRALVARLLGPGPAADFSVSVERALAAKPGLDTYSLGGGGAARVRVRGSTGVAAAAGLHRYLRDFCGCHVAWSGSQLRLPRPLPAVPGELTEATPNRYRYYQNVCTQSYSFVWWDWARWEREIDWMALNGINLALAWSGQEAIWQRVYLALGLTQAEINEFFTGPAFLAWGRMGNLHTWDGPLPPSWHIKQLYLQHRVLDQMRSFGMTPVLPAFAGHVPEAVTRVFPQVNVTKMGSWGHFNCSYSCSFLLAPEDPIFPIIGSLFLRELIKEFGTDHIYGADTFNEMQPPSSEPSYLAAATTAVYEAMTAVDTEAVWLLQGWLFQHQPQFWGPAQIRAVLGAVPRGRLLVLDLFAESQPVYTRTASFQGQPFIWCMLHNFGGNHGLFGALEAVNGGPEAARLFPNSTMVGTGMAPEGISQNEVVYSLMAELGWRKDPVPDLAAWVTSFAARRYGVSHPDAGAAWRLLLRSVYNCSGEACRGHNRSPLVRRPSLQMNTSIWYNRSDVFEAWRLLLTSAPSLATSPAFRYDLLDLTRQAVQELVSLYYEEARSAYLSKELASLLRAGGVLAYELLPALDEVLASDSRFLLGSWLEQARAAAVSEAEADFYEQNSRYQLTLWGPEGNILDYANKQLAGLVANYYTPRWRLFLEALVDSVAQGIPFQQHQFDKNVFQLEQAFVLSKQRYPSQPRGDTVDLAKKIFLKYYPRWVAGSWGAPGGGGGAAAAAGGGGGGAPGGGGGAAAAAGGGGGGAPGGGGGAAAAAGGGGGGAPLCGGELVDTLQFVCGDRGFYFSRPASRVSRRSRGIVEECCFRSCDLALLETYCATPAKSE
notes: Fusion protein of human Naglu and IGF-II residues 8-67 via GAG3 linker; positive control
For B1, the “Naglu activity in liver and brain tissue vs vehicle control” value (Naglu KO mice [1]) was “dramatic increase”, the “Lamp-1 immunostaining in brain (cerebral cortex, cerebellum, thalamus, striatum, white matter)” value (Naglu KO mice [2]; 2× weekly and 3× weekly) was “decrease” and the “Lamp-1 immunoreactivity in liver” value (Naglu KO mice [2]; three weekly deliveries) was “reduced significantly”. For the same molecule, the “GFAP staining in cerebral cortex and cerebellum (astrocytes)” value (Naglu KO mice [2]; three weekly injections) was “reduced signal”, the “Iba-1 staining in cerebral cortex and cerebellum (microglial cells)” value (Naglu KO mice [2]; three weekly injections) was “microglial cells had a reduced size and a reduced number of processes” and the “total GAG concentration in liver and brain tissue vs vehicle control” value (Naglu KO mice [3]) was “significant reduction”. The “Naglu immunostaining in cerebral cortex / brain parenchyma” value (wild-type rats [4]) was “positive staining”, the “Naglu immunostaining in cerebellum and hippocampal region” value (wild-type rats [4]; 24 hours post injection) was “strong Naglu signal” and the “accumulation of three GAG cleavage products (San B biomarkers) in brain” value (Naglu KO mice [5]) was “dramatic decrease”. The “rank of Naglu enzyme activity in brain among treatments” value (wild-type rats [6]) was “highest activity”, the “Naglu enzyme activity in brain” value (wild-type rats [6]) was “markedly elevated levels” and the “total amount of heparan sulfate accumulation in brain tissue” value (Naglu KO mice [7]) was “strong reduction”.

B2: Naglu-tPRGN: Fusion protein of human Naglu and Progranulin C-terminal peptide (tPRGN) via GAG3 linker; SEQ ID NO:18, SEQ ID NO:23 (protein)
chain: MEAVAVAAAVGVLLLAGAGGAAGDEAREAAAVRALVARLLGPGPAADFSVSVERALAAKPGLDTYSLGGGGAARVRVRGSTGVAAAAGLHRYLRDFCGCHVAWSGSQLRLPRPLPAVPGELTEATPNRYRYYQNVCTQSYSFVWWDWARWEREIDWMALNGINLALAWSGQEAIWQRVYLALGLTQAEINEFFTGPAFLAWGRMGNLHTWDGPLPPSWHIKQLYLQHRVLDQMRSFGMTPVLPAFAGHVPEAVTRVFPQVNVTKMGSWGHFNCSYSCSFLLAPEDPIFPIIGSLFLRELIKEFGTDHIYGADTFNEMQPPSSEPSYLAAATTAVYEAMTAVDTEAVWLLQGWLFQHQPQFWGPAQIRAVLGAVPRGRLLVLDLFAESQPVYTRTASFQGQPFIWCMLHNFGGNHGLFGALEAVNGGPEAARLFPNSTMVGTGMAPEGISQNEVVYSLMAELGWRKDPVPDLAAWVTSFAARRYGVSHPDAGAAWRLLLRSVYNCSGEACRGHNRSPLVRRPSLQMNTSIWYNRSDVFEAWRLLLTSAPSLATSPAFRYDLLDLTRQAVQELVSLYYEEARSAYLSKELASLLRAGGVLAYELLPALDEVLASDSRFLLGSWLEQARAAAVSEAEADFYEQNSRYQLTLWGPEGNILDYANKQLAGLVANYYTPRWRLFLEALVDSVAQGIPFQQHQFDKNVFQLEQAFVLSKQRYPSQPRGDTVDLAKKIFLKYYPRWVAGSWGAPGGGGGAAAAAGGGGGGAPGGGGGAAAAAGGGGGGAPGGGGGAAAAAGGGGGGAPTKCLRREAPRWDAPLRDPALRQLL
In the case of B2, the “Naglu immunostaining in cerebral cortex / brain parenchyma” value (wild-type rats [4]) is reported as “little to no Naglu signal”, the Bmax of binding/uptake [8] is reported as 2060 nmol/h/mg and the “cellular internalization (intracellular Naglu activity)” value [8] is reported as “effectively internalized”. For the same molecule, the “Naglu enzyme activity in brain” value (wild-type rats [6]) was “markedly elevated levels”.

B3: Naglu-SapDC: Fusion protein of human Naglu and Prosaposin DC peptide (SapDC) via GAG3 linker; SEQ ID NO:19, SEQ ID NO:24 (protein)
chain: MEAVAVAAAVGVLLLAGAGGAAGDEAREAAAVRALVARLLGPGPAADFSVSVERALAAKPGLDTYSLGGGGAARVRVRGSTGVAAAAGLHRYLRDFCGCHVAWSGSQLRLPRPLPAVPGELTEATPNRYRYYQNVCTQSYSFVWWDWARWEREIDWMALNGINLALAWSGQEAIWQRVYLALGLTQAEINEFFTGPAFLAWGRMGNLHTWDGPLPPSWHIKQLYLQHRVLDQMRSFGMTPVLPAFAGHVPEAVTRVFPQVNVTKMGSWGHFNCSYSCSFLLAPEDPIFPIIGSLFLRELIKEFGTDHIYGADTFNEMQPPSSEPSYLAAATTAVYEAMTAVDTEAVWLLQGWLFQHQPQFWGPAQIRAVLGAVPRGRLLVLDLFAESQPVYTRTASFQGQPFIWCMLHNFGGNHGLFGALEAVNGGPEAARLFPNSTMVGTGMAPEGISQNEVVYSLMAELGWRKDPVPDLAAWVTSFAARRYGVSHPDAGAAWRLLLRSVYNCSGEACRGHNRSPLVRRPSLQMNTSIWYNRSDVFEAWRLLLTSAPSLATSPAFRYDLLDLTRQAVQELVSLYYEEARSAYLSKELASLLRAGGVLAYELLPALDEVLASDSRFLLGSWLEQARAAAVSEAEADFYEQNSRYQLTLWGPEGNILDYANKQLAGLVANYYTPRWRLFLEALVDSVAQGIPFQQHQFDKNVFQLEQAFVLSKQRYPSQPRGDTVDLAKKIFLKYYPRWVAGSWGAPGGGGGAAAAAGGGGGGAPGGGGGAAAAAGGGGGGAPGGGGGAAAAAGGGGGGAPDGGFCEVCKKLVGYLDRNLEKNSTKQEILAALEKGCSFLPDPYQKQCDQFVAEYEPVLIEILVEVMDPSFVCLKIGACPSAHKPLLGTEKCIWGPSYWCQNTETAAQCNAVEHCKRHVWN
With B3 the “Naglu immunostaining in cerebral cortex / brain parenchyma” value (wild-type rats [4]) was “little to no Naglu signal”, the “cellular internalization (intracellular Naglu activity)” value [8] was “only a very limited increase” and the “Naglu enzyme activity in brain” value (wild-type rats [6]) was “markedly elevated levels”.
